According to US20240400657A1 (MorphoSys, published 2024):
Where a chain is given by its changes, count along the chain named.

Key:
[1] = target: rat transferrin (rat, UniProt P12346 20-698); assay: Octet based binding assay
[2] = target: cynomolgus transferrin (cynomolgus, UniProt A0A2K5UXZ0 20-695); assay: Octet based binding assay
[3] = target: Amyloglycosidase; assay: Protein Panel Profiling (3P), MSD ECL, coated antigen, IgG 10 nM
Experimental: (§1) 32 different proteins and controls were coated on two 384-well MSD standard plates at a concentration of 1.0 μg/mL at 4° C. over night. The coating solution was discarded and plates were blocked with 50 μL 3% (w/v) BSA in PBS for one hour at RT on a microtiter plate shaker (˜500 rpm) followed by three washing steps with 50 μL washing buffer (PBS with 0.05% (v/v) Tween 20). IgG samples were diluted to 100 nM and 10 nM in assay buffer (PBS with 0.5% (w/v) BSA, 0.05% (v/v) Tween 20). As controls, isotype control antibody MOR03207 (IgG1f_AEASS) and assay buffer were used. Samples and controls were added at 30 μL/well and incubated for three hours at RT on a microtiter plate shaker. The plates were washed three times and 30 μL detection antibody (ECL-labeled anti-human Fab) were added per well and incubated for one hour on a microtiter plate shaker (˜500 rpm). After washing the MSD plate and adding 35 μL/well MSD Read Buffer T with surfactant, electro-chemiluminescence signals were detected using a SECTOR® Imager S600 instrument (Meso Scale Diagnostics).
(§2) For evaluation, binding signals of the antibody sample to a certain protein were divided by the respective binding signals of the reference antibody MOR03207 resulting in a binding ratio (BR). The cumulative binding ratio (CBR) of all proteins except the controls (25 in total) was then calculated: CBR up to 150 indicates an IgG without detectable unspecific binding. Values above 150 indicates an IgG with increased unspecific binding compared to the reference antibody MOR03207.

[4] = target: Myoglobin; assay: as above
Experimental: as §1, §2

[5] = target: T1, Protein A; assay: as above
T1 construct: control of the 3P panel
Experimental: as §1, §2

[6] = target: RNase B; assay: as above
Experimental: as §1, §2

[7] = target: T2, Serum albumin (h) (human); assay: as above
T2 construct: '(h)' on the sheet read as human
Experimental: as §1, §2

[8] = target: Lysozyme; assay: as above
Experimental: as §1, §2

[9] = target: T3, Cell surface rec. 2_Fc (h); assay: as above
T3 construct: identity not disclosed
Experimental: as §1, §2

[10] = target: Trypsinogen; assay: as above
Experimental: as §1, §2

[11] = target: RNase A; assay: as above
Experimental: as §1, §2

[12] = target: T4, anti-human Fc; assay: as above
T4 construct: control of the 3P panel; it captures human IgG as such, so a ratio of 1 means a signal equal to that of MOR03207
Experimental: as §1, §2

[13] = target: T5, Fc (h); assay: as above
T5 construct: '(h)' on the sheet read as human
Experimental: as §1, §2

[14] = target: Antitrypsin; assay: as above
Experimental: as §1, §2

[15] = target: Trypsin inhibitor; assay: as above
Experimental: as §1, §2

[16] = target: Fibrinogen (b) (bovine); assay: as above
Experimental: as §1, §2

[17] = target: Lectin; assay: as above
Experimental: as §1, §2

[18] = target: T6, Hemoglobin (h) (human); assay: as above
T6 construct: '(h)' on the sheet read as human
Experimental: as §1, §2

[19] = target: T7, Cell surface rec. 1_Lys (h); assay: as above
T7 construct: identity not disclosed
Experimental: as §1, §2

[20] = target: T8, human C5aR_NT-bio peptide (human, biotin tag (position not given)); assay: as above
T8 construct: Chemically synthesized linear peptide (Genscript); also called human C5aR N-terminal peptide; human C5aR peptide
T8 peptide: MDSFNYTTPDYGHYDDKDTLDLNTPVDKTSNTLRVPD

[21] = target: Ovalbumin; assay: as above
Experimental: as §1, §2

[22] = target: T9, anti-human Fab (Dianova); assay: as above
T9 construct: control of the 3P panel; it captures human IgG as such, so a ratio of 1 means a signal equal to that of MOR03207
Experimental: as §1, §2

[23] = target: Pepsinogen; assay: as above
Experimental: as §1, §2

[24] = target: Cytochrome C; assay: as above
Experimental: as §1, §2

[25] = target: bovine transferrin (bovine, UniProt Q29443 20-704); assay: as above
Experimental: as §1, §2

[26] = target: GFP; assay: as above
Experimental: as §1, §2

[27] = target: T10, full-length human C3aR expressed on CHO Flp-In cells (human, UniProt Q16581 1-482); assay: FACS, CHO Flp-In cells expressing human C3aR, single IgG concentration
T10 construct: also called C3a anaphylatoxin chemotactic receptor
T10 sequence: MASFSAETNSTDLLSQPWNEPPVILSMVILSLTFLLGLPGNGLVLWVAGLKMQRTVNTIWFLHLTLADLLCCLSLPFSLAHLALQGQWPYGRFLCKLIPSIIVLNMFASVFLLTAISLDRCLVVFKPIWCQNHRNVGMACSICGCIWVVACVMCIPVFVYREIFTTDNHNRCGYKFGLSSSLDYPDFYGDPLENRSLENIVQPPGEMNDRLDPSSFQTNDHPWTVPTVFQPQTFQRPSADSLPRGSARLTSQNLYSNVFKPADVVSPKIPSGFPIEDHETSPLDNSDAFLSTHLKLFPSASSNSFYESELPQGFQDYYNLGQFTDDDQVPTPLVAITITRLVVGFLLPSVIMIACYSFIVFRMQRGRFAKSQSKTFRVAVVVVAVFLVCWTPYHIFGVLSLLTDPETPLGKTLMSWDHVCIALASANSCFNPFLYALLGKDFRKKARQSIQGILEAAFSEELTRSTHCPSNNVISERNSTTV

RNase A, sequence (P61823 27-150): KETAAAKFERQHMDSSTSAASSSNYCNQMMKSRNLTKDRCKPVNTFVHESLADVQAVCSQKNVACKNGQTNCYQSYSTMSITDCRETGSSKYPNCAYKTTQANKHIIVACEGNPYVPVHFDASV
RNase B, sequence (P61823 27-150): as above
T2 sequence (P02768 25-609): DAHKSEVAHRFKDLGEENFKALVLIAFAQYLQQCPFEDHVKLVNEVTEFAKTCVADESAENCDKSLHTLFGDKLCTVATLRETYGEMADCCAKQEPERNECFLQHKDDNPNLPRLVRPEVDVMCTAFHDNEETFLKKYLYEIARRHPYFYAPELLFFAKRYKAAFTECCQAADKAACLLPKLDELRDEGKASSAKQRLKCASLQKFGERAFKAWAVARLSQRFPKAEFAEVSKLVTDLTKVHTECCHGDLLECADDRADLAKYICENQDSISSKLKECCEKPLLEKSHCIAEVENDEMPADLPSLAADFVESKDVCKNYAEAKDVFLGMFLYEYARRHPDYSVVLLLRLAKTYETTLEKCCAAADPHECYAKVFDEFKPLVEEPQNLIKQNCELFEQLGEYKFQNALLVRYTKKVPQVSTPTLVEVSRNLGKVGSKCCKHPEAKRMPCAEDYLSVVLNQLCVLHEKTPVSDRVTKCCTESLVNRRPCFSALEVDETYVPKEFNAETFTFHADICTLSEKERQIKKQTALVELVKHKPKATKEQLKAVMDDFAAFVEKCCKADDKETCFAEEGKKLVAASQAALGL
rat transferrin, sequence (P12346 20-698 limits assumed): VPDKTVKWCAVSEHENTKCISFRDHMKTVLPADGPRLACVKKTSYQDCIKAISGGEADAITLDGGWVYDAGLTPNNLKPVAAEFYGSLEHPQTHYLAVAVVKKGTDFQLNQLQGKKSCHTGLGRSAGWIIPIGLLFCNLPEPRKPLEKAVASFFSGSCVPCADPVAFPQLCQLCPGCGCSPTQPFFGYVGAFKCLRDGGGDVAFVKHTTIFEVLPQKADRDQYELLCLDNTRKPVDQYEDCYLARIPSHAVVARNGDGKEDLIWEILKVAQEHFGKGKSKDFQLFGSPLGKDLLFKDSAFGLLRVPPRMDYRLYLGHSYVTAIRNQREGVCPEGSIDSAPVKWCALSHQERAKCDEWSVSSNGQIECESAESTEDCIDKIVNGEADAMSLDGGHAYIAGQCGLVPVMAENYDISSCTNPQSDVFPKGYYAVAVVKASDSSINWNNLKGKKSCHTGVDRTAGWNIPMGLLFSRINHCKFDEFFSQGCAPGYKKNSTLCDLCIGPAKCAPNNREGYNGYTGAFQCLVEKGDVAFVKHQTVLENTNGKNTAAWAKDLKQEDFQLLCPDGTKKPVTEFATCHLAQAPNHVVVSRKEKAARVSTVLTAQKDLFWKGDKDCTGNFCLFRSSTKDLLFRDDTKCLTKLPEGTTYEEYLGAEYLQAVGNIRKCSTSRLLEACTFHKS
Lysozyme, sequence (P00698 19-147): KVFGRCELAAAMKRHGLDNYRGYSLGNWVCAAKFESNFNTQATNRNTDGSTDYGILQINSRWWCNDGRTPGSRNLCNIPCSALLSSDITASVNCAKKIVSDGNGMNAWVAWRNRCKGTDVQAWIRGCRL
Fibrinogen (b) (bovine), sequence (P02672 20-615, chain 1 of 3): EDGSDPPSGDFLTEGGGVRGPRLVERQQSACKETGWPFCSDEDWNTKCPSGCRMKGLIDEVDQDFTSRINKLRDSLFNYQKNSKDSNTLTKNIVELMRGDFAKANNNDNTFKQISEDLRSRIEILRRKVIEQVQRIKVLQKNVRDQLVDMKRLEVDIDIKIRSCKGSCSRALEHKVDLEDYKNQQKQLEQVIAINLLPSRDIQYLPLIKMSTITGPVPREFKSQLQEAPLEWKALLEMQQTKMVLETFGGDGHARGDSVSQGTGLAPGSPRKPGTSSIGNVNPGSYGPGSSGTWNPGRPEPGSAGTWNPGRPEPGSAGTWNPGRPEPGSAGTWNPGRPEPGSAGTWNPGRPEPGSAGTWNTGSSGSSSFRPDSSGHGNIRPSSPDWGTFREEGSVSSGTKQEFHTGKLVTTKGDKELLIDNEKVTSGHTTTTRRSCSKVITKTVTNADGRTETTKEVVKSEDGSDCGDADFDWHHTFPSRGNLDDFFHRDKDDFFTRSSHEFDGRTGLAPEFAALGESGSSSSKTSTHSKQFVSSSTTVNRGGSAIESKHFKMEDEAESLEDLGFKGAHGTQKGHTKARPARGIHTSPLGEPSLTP
Fibrinogen (b) (bovine), sequence (P02676 whole entry, chain 2 of 3, further chain): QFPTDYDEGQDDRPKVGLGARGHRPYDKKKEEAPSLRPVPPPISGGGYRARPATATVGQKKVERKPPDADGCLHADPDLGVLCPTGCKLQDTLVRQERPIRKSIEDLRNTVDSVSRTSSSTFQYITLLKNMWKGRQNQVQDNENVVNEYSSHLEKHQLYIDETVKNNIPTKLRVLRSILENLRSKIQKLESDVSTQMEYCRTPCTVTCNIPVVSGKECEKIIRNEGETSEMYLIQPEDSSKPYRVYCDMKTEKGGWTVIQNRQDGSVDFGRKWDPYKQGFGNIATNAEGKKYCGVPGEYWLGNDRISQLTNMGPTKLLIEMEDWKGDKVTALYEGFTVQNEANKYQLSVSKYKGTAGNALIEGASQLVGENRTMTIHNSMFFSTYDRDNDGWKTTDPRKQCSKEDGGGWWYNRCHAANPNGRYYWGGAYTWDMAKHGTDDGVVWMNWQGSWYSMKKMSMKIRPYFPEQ
Fibrinogen (b) (bovine), sequence (P12799 25-444, chain 3 of 3, further chain): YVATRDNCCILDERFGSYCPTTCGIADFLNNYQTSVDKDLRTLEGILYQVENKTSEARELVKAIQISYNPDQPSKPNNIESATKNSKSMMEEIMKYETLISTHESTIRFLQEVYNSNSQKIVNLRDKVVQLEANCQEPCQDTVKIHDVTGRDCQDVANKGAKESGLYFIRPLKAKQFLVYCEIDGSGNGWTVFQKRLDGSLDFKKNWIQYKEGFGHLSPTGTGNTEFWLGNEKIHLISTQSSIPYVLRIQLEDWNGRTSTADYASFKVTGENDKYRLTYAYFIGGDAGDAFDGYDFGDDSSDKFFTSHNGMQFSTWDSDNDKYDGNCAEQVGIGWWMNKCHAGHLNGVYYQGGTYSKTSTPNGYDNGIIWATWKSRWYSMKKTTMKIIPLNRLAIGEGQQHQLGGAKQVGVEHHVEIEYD
Ovalbumin, sequence (P01012 2-386): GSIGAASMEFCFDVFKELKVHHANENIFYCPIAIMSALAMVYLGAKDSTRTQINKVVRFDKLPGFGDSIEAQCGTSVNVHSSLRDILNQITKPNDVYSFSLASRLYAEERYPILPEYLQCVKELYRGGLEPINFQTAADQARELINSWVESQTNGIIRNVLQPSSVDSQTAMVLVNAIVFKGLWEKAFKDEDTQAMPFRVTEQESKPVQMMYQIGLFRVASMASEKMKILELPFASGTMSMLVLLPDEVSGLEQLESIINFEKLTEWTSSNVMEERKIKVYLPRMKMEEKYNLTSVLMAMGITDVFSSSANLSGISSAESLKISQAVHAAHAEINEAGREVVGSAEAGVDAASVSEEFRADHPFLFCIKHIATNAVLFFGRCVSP
bovine transferrin, sequence (Q29443 20-704 limits assumed): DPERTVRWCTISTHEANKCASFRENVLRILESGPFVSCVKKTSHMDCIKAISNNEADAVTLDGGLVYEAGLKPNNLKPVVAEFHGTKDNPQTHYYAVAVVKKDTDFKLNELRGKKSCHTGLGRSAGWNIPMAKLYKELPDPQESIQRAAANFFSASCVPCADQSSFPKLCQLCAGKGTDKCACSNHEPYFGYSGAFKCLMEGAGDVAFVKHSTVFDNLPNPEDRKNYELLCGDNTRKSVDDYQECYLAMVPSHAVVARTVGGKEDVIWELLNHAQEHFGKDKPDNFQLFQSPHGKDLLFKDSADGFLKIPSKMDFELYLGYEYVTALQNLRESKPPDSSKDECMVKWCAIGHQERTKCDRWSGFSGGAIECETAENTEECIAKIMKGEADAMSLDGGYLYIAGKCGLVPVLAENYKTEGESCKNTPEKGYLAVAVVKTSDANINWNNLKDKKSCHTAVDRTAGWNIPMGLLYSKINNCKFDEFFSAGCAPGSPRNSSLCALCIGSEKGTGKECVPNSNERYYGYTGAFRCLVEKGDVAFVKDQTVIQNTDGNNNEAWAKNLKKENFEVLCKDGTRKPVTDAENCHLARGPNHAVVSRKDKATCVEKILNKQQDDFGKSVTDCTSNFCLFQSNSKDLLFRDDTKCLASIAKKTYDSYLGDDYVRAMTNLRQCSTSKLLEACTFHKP
T6 sequence (P69905 2-142, chain 1 of 2): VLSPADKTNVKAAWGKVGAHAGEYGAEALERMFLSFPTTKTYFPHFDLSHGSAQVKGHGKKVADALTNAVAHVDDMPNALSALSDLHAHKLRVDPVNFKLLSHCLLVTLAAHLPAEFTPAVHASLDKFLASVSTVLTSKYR
T6 sequence (P68871 2-147, chain 2 of 2, further chain): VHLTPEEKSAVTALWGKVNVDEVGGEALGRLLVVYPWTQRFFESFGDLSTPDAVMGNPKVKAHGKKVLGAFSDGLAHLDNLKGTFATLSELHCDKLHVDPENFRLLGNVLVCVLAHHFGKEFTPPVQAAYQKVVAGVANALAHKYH

B1: MAB #2 (antibody, human IgG1, lambda)
heavy: EVQLVESGGGLVKPGGSLRLSCAASGFTFSSYAMHWVRQAPGKGLEWVGRIKSVAQGGTTDYAAHVKGRFTISRDDSKNTLYLQMNSLKTEDTAVYYCARVSHSTFDVWGQGTLVTVSSASTKGPSVFPLAPSSKSTSGGTAALGCLVKDYFPEPVTVSWNSGALTSGVHTFPAVLQSSGLYSLSSVVTVPSSSLGTQTYICNVNHKPSNTKVDKRVEPKSCDKTHTCPPCPAPEAEGAPSVFLFPPKPKDTLMISRTPEVTCVVVDVSHEDPEVKFNWYVDGVEVHNAKTKPREEQYNSTYRVVSVLTVLHQDWLNGKEYKCKVSNKALPSSIEKTISKAKGQPREPQVYTLPPSREEMTKNQVSLTCLVKGFYPSDIAVEWESNGQPENNYKTTPPVLDSDGSFFLYSKLTVDKSRWQQGNVFSCSVMHEALHNHYTQKSLSLSPGK
light: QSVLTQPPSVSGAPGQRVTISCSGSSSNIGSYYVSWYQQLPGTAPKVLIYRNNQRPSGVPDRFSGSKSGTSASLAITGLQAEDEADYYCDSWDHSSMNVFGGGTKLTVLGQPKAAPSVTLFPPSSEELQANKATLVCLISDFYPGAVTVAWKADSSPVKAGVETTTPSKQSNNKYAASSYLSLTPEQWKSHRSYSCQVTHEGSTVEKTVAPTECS
notes: lambda 1 light chain
For B1, the binding result [1] was “no binding”, the binding result [2] was “no binding” and the “binding ratio (signal / signal of MOR03207)” value [3] was 1. For the same binder, the “binding ratio (signal / signal of MOR03207)” value [4] was 1, the “binding ratio (signal / signal of MOR03207)” value [5] was 1 and the “binding ratio (signal / signal of MOR03207)” value [6] was 1. For the same binder, the “binding ratio (signal / signal of MOR03207)” value [7] was 1, the “binding ratio (signal / signal of MOR03207)” value [8] was 1 and the “binding ratio (signal / signal of MOR03207)” value [9] was 1. The “binding ratio (signal / signal of MOR03207)” value [10] was 1, the “binding ratio (signal / signal of MOR03207)” value [11] was 2 and the “binding ratio (signal / signal of MOR03207)” value [12] was 1. The “binding ratio (signal / signal of MOR03207)” value [13] was 1, the “binding ratio (signal / signal of MOR03207)” value [14] was 2 and the “binding ratio (signal / signal of MOR03207)” value [15] was 3. The “binding ratio (signal / signal of MOR03207)” value [16] was 1, the “binding ratio (signal / signal of MOR03207)” value [17] was 1 and the “binding ratio (signal / signal of MOR03207)” value [18] was 1. The “binding ratio (signal / signal of MOR03207)” value [19] was 1, the “binding ratio (signal / signal of MOR03207)” value [20] was 46 and the “binding ratio (signal / signal of MOR03207)” value [21] was 1. For the same binder, the “binding ratio (signal / signal of MOR03207)” value [22] was 1, the “binding ratio (signal / signal of MOR03207)” value [23] was 1 and the “binding ratio (signal / signal of MOR03207)” value [24] was 1. The “binding ratio (signal / signal of MOR03207)” value [25] was 4, the “binding ratio (signal / signal of MOR03207)” value [26] was 1 and the binding result [27] was “no binding (tested: 300 nM)”.

B2: MAB #1 (antibody, human IgG1, lambda)
heavy: B1 heavy with V54K, H103F
light: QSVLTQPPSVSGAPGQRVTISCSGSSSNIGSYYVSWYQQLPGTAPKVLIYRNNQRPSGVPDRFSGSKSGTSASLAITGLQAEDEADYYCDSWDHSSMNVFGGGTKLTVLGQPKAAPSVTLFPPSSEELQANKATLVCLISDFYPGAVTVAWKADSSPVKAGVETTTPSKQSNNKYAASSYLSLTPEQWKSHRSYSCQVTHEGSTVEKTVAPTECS
notes: lambda 1 light chain, VH3-15 framework
B2 was tested, and the binding result [1] was “no binding”, the binding result [2] was “no binding” and the “binding ratio (signal / signal of MOR03207)” value [3] was 1. For the same binder, the “binding ratio (signal / signal of MOR03207)” value [4] was 1, the “binding ratio (signal / signal of MOR03207)” value [5] was 1 and the “binding ratio (signal / signal of MOR03207)” value [6] was 1. For the same binder, the “binding ratio (signal / signal of MOR03207)” value [7] was 2, the “binding ratio (signal / signal of MOR03207)” value [8] was 1 and the “binding ratio (signal / signal of MOR03207)” value [9] was 1. For the same binder, the “binding ratio (signal / signal of MOR03207)” value [10] was 1, the “binding ratio (signal / signal of MOR03207)” value [11] was 2 and the “binding ratio (signal / signal of MOR03207)” value [12] was 1. The “binding ratio (signal / signal of MOR03207)” value [13] was 1, the “binding ratio (signal / signal of MOR03207)” value [14] was 1 and the “binding ratio (signal / signal of MOR03207)” value [15] was 2. For the same binder, the “binding ratio (signal / signal of MOR03207)” value [16] was 1, the “binding ratio (signal / signal of MOR03207)” value [17] was 1 and the “binding ratio (signal / signal of MOR03207)” value [18] was 1. The “binding ratio (signal / signal of MOR03207)” value [19] was 1, the “binding ratio (signal / signal of MOR03207)” value [20] was 82 and the “binding ratio (signal / signal of MOR03207)” value [21] was 1. The “binding ratio (signal / signal of MOR03207)” value [22] was 1, the “binding ratio (signal / signal of MOR03207)” value [23] was 1 and the “binding ratio (signal / signal of MOR03207)” value [24] was 1. For the same binder, the “binding ratio (signal / signal of MOR03207)” value [25] was 8, the “binding ratio (signal / signal of MOR03207)” value [26] was 1 and the binding result [27] was “no binding (tested: 300 nM)”.
